Source: article PMC9365787, “Molecular basis of MHC I quality control in the peptide loading complex” (Nature Communications, 2022)

T1: ERp57 (human (endogenous in Raji), UniProt P30101 25-505, disulfide from Cys33 to Cys95 of tapasin)
T1 construct: also called disulfide isomerase ERp57; source: endogenous, Raji (Burkitt's lymphoma) cells, solubilised in GDN; purified within the PLC by ICP47^SBP and reconstituted in MSP2N2 nanodiscs
T1 sequence (looked up): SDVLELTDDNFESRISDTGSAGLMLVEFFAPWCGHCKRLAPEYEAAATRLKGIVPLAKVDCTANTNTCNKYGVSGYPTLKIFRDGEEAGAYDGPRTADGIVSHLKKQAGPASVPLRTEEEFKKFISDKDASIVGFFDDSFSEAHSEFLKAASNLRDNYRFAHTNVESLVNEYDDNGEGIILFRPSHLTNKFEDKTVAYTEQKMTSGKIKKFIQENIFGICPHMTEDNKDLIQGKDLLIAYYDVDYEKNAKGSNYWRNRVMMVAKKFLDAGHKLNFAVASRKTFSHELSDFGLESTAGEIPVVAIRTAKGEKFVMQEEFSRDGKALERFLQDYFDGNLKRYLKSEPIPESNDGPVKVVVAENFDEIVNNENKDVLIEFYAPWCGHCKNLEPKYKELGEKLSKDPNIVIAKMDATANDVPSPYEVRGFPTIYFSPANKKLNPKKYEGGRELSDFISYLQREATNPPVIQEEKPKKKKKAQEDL

B1: tapasin (natural protein, human (endogenous in Raji), UniProt O15533 21-448, looked up)
chain: GPAVIECWFVEDASGKGLAKRPGALLLRQGPGEPPPRPDLDPELYLSVHDPAGALQAAFRRYPRGAPAPHCEMSRFVPLPASAKWASGLTPAQNCPRALDGAWLMVSISSPVLSLSSLLRPQPEPQQEPVLITMATVVLTVLTHTPAPRVRLGQDALLDLSFAYMPPTSEAASSLAPGPPPFGLEWRRQHLGKGHLLLAATPGLNGQMPAAQEGAVAFAAWDDDEPWGPWTGNGTFWLPTVQPFQEGTYLATIHLPYLQGQVTLELAVYKPPKVSLMPATLARAAPGEAPPELLCLVSHFYPSGGLEVEWELRGGPGGRSQKAEGQRWLSALRHHSDGSVSLSGHLQPPPVTTEQHGARYACRIHHPSLPASGRSAEVTLEVAGLSGPSLEDSVGLFLSAFLLLGLFKALGWAAVYLSTCKDSKKKAE
modifications: N-glycan at Asn233 (Man9-0GlcNAc2-1, heterogeneous); disulfide from Cys95 to Cys33 of ERp57
notes: source: endogenous, Raji (Burkitt's lymphoma) cells, solubilised in GDN; purified within the PLC by ICP47^SBP and reconstituted in MSP2N2 nanodiscs

Columns and labels:
[1] = target: B1; test: cryo-EM structure; PLC::MSP2N2 (1.8 mg/ml, 2.5 µM) in lipid nanodiscs without chemical fixation; focused refinement on the fully assembled editing module, 3.7 Å; settings: both partners purified
[2] = target: T1, ERp57; test: as above; settings: both partners purified

Binder	binding result [1]	binding result [2]
calreticulin (natural protein, human (endogenous in Raji), UniProt P27797 18-417, looked up, source: endogenous, Raji (Burkitt's lymphoma) cells, solubilised in GDN; purified within the PLC by ICP47^SBP and reconstituted in MSP2N2 nanodiscs) EPAVYFKEQFLDGDGWTSRWIESKHKSDFGKFVLSSGKFYGDEEKDKGLQTSQDARFYALSASFEPFSNKGQTLVVQFTVKHEQNIDCGGGYVKLFPNSLDQTDMHGDSEYNIMFGPDICGPGTKKVHVIFNYKGKNVLINKDIRCKDDEFTHLYTLIVRPDNTYEVKIDNSQVESGSLEDDWDFLPPKKIKDPDASKPEDWDERAKIDDPTDSKPEDWDKPEHIPDPDAKKPEDWDEEMDGEWEPPVIQNPEYKGEWKPRQIDNPDYKGTWIHPEIDNPEYSPDPSIYAYDNFGVLGLDLWQVKSGTIFDNFLITNDEAYAEEFGNETWGVTKAAEKQMKDKQDEEQRLKEEEEDKKRKEEEEAEDKEDDEDKDEDEEDEEDKEEDEEEDVPGQAKDEL	binds	
B1		binds
